# Assay results taken from publication PMC5471280, “An alternative conformation of ERβ bound to estradiol reveals H12 in a stable antagonist position” (Scientific Reports, 2017).
# B1: human estrogen receptor beta ligand-binding domain (residues 256-501) bound to 17β-estradiol (domain or fragment, UniProt Q92731 256-501, looked up)
# chain: RELLLDALSPEQLVLTLLEAEPPHVLISRPSAPFTEASMMMSLTKLADKELVHMISWAKKIPGFVELSLFDQVRLLESCWMEVLMMGLMWRSIDHPGKLIFAPDLVLDRDEGKCVEGILEIFDMLLATTSRFRELKLQHKEYLCVKAMILLNSSMYPLVTATQDADSSRKLAHLLNAVTDALVWVIAKSGISSQQQSMRLANLLMLLSHVRHASNKGMEHLLNMKCKNVVPVYDLLLEMLNAHVLR
# notes: The tag was removed with the SUMO protease Ulp1; also called ERβ LBD; hERβ LBD; source: E. coli BL21 (DE3)RIL, purified (NiNTA, Ulp1 cleavage, Superdex-75 SEC)
# Target: the molecule itself
# Test: crystal structure; ERβ LBD-E2 complex at 5 mg/mL; sitting drop, 19 °C; 0.1 M Na-citrate pH 5.5, 10% PEG-4000, 10% isopropanol; no coactivator peptide; 2.5 Å; dimer in the asymmetric unit
protein,measurement,value
B1,stoichiometry N,2
